Data reported in doi:10.1101/2020.01.02.892901.
Several values for one entry are separate records, joined by “and”; a condition that tells them apart may be missing. Equal entries are not always repeated.

Target: MET pY1313 phosphopeptide (human)
Assay: fluorescence polarisation

Kd: 3 µM and 12 µM
Substance: FGR SH2 domain (from UniProt P09769 144-241) (domain or fragment)
